Source: paper PMC4032492, “Molecular mechanism of Aurora A kinase autophosphorylation and its allosteric activation by TPX2” (eLife, 2014)
Positions count from the first letter of the chain named. Names and notes keep the numbering of the source.

Columns and labels:
[1] = target: dephosphorylated Aurora A kinase 122-403 (human) (UniProt O14965); experiment: SAXS; Aurora A 0.33-6.6 mg/ml with 1 mg/mL TPX2 1-25, 500 μM AMPPCP, kinase assay buffer, 20°C; curves fitted with monomer and dimer of the X-ray structures
[2] = target: dephosphorylated Aurora A kinase 122-403 (human) (UniProt O14965); experiment: AUC + other: SAXS; estimate from the concentration dependence of the dimer in AUC and SAXS; dimer to monomers
[3] = target: dephosphorylated Aurora A kinase 122-403 (human) (UniProt O14965); experiment: AUC; sedimentation velocity, 50,000 rpm, 18°C; 100-160 μM Aurora A + 500 μM AMPPCP, with or without 100 μM TPX2 1-25, kinase assay buffer; dimer to monomers
[4] = target: T1, dephosphorylated Aurora A kinase 122-403 (human, UniProt O14965 122-403); experiment: ITC
T1 chain: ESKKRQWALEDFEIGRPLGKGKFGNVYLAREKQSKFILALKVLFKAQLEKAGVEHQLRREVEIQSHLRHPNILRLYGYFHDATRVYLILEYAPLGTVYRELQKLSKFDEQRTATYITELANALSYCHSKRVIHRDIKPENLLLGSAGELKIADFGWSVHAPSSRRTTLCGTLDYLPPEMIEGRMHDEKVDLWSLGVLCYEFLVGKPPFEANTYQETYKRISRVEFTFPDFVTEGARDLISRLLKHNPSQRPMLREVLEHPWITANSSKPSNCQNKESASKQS

[5] = target: T2, phosphorylated Aurora A kinase 122-403 (human, UniProt O14965 122-403, heavily phosphorylated (multiple sites, by autophosphorylation and E. coli kinases during expression); T288 in the activation loop phosphorylated); experiment: ITC; phosphorylated Aurora A
T2 chain: T1 chain

[6] = target: the molecule itself; experiment: AUC; sedimentation velocity, 50,000 rpm, 18°C; 100-160 μM Aurora A + 500 μM AMPPCP, with or without 100 μM TPX2 1-25, kinase assay buffer; dimer to monomers
[7] = target: T3, dephosphorylated Aurora A kinase 122-403 (human, UniProt O14965 122-403); experiment: ITC; Nano ITC, 1 μl injections every 180 s, 25°C; 20 mM TrisHCl, 200 mM NaCl, 3% glycerol, 1 mM TCEP, pH 7.50; independent fit model; Aurora A 13-90 μM, TPX2 250-940 μM; conditions: both partners purified
T3 construct: Aurora A kinase, human, residues 122-403, codon-optimized, completely dephosphorylated (confirmed by MS); Monomer and dimer are both seen in solution; also called deP Aurora A; deP Aurora A^122−403
T3 sequence (looked up): T1 chain

Aurora A^122−403 T288V = target: T4, Aurora A^122−403 T288V (human, UniProt O14965 122-403, T288V); experiment: cell-based or functional assay
T4 sequence (looked up): T1 chain with T167V

“dephosphorylated Aurora A kinase 122-403 (from UniProt O14965 122-403) (domain or fragment)” showed a percent dimer [1] of 9%, a Kd [2] greater than 300000 nM and a stoichiometry N [3] of 2.

B1: TPX2^1−25 (peptide)
chain: MSQVKSSYSYDAPSDFINFSSLDDE
For B1, the Kd [4] was 2000 nM and the Kd [5] was 1800 nM.

B2: TPX2^1−45 (peptide)
chain: MSQVKSSYSYDAPSDFINFSSLDDEGDTQNIDSWFEEKANLENKL
In the case of B2, the Kd [4] is reported as 5000 nM and the Kd [5] is reported as 2000 nM.

B3: Aurora A^125−392 D274A (domain or fragment, human, UniProt O14965 125-392, looked up)
chain: KRQWALEDFEIGRPLGKGKFGNVYLAREKQSKFILALKVLFKAQLEKAGVEHQLRREVEIQSHLRHPNILRLYGYFHDATRVYLILEYAPLGTVYRELQKLSKFDEQRTATYITELANALSYCHSKRVIHRDIKPENLLLGSAGELKIAAFGWSVHAPSSRRTTLCGTLDYLPPEMIEGRMHDEKVDLWSLGVLCYEFLVGKPPFEANTYQETYKRISRVEFTFPDFVTEGARDLISRLLKHNPSQRPMLREVLEHPWITANSSKPSN
notes: Aurora A kinase, human, residues 125-392, D274A; The purification of this mutant is not described on its own; also called kinase-dead Aurora A D274A; catalytically impaired D274A mutant; source: E. coli, purified (short 125-392 construct in pET28a)
B3 was tested, and the “stoichiometry N” value [6] was 2.

B4: TPX2^1−147 (Targeting Protein for Xklp2, residues 1-147) (domain or fragment, UniProt Q9ULW0 1-147, looked up)
chain: MSQVKSSYSYDAPSDFINFSSLDDEGDTQNIDSWFEEKANLENKLLGKNGTGGLFQGKTPLRKANLQQAIVTPLKPVDNTYYKEAEKENLVEQSIPSNACSSLEVEAAISRKTPAQPQRRSLRLSAQKDLEQKEKHHVKMKAKRCAT
notes: TPX2 (Targeting Protein for Xklp2), residues 1-147; also called longer TPX2 variant
For B4, the Kd [7] was 1100 ± 100 nM, the “KA from the dose-dependence of TPX2 1-147 on AP phosphorylation kinetics by 1 μM Aurora A T288V” value (Aurora A^122−403 T288V) was 1 µM and the Kd [5] was 2900 nM.
